Experimental data reported in patent US6855495B1, “Toso as a target for drug screening” (Rigel Pharmaceuticals, Inc., priority 1998, dated 2005).
Like-named read-outs stand apart in the source and are kept apart here.

Experiments:
[1] = Gamen et al. 1996; cited from earlier work
Jurkat.ecoR cells [2] = test: anti-Fas mAb-induced apoptosis in Jurkat.ecoR cells expressing the construct; assay type: cell-based, human; details: for anti-Fas mAb-induced apoptosis: 10 ng/ml anti-Fas mAb, 24 hours, in words
Protocol: Jurkat cells that express the receptor for ecotropic murine retroviruses (“Jurkat.ecoR”) were infected with retroviruses that express Toso and control vectors, pBabeMN-Toso, pBabeMN-lacZ and pBabeMN-Lyt-2-α′(α′ form of mouse CD8α chain) (Tagawa, et al. (1986)). Jurkat.ecOR cells were infected with pBabeMN-lacZ, pBabeMN-Lyt-2-α′, and pBabeMN-Toso. At 72 hours postinfection, infection frequency of pBabeMN-lacZ and pBabeMN-Lyt-2α′ were determined to be 45% and 58%, respectively. Jurkat cells were then cultured with 10 ng/ml anti-Fas mAb for 24 hours. After 12 or 24 hours, the cells were stained with 100 μg/ml ethidium bromide (SIGMA) and 100 μg/ml acridine orange (SIGMA). Apoptotic cells and non-apoptotic cells were identified with UV microscopy as described (MacGahon, et al., The End of the (Cell) Line: Methods for the Study of Apoptosis in vitro, in Methods in cell biology, L. J. Schwartz and B. A. Osborne, eds., San Diego, Calif., Academic Press, Inc., pp. 172-173 (1995)).
Jurkat.ecOR cells were infected with pBabeMN-Lyt-2-α′. HA, pBabeMN-Toso. HA, pBabeMN-TosoΔ(377-390). HA, pBabeMN-TosoΔ(334-390). HA, pBabeMN-TosoΔ(281-390).HA, pBabeMNTosoΔ(252-390).HA and pBabeMN-TosoΔ(29-187).HA. Jurkat cells were cultured with 10 ng/ml anti-Fas mAb for 24 hours and apoptotic cells were counted. […] Deletions of regions of the cytoplasmic domain of Toso from 334 to 390 still inhibited apoptosis. Moreover, a deletion of Toso lacking the entire cytoplasmic domain still retained substantial anti-apoptotic ability. Thus, the cytoplasmic domain of Toso is not absolutely required for the anti-apoptotic effects on Fas antibody-stimulated cells.

Jurkat.ecoR cells [3] = test: staurosporine- and ceramide-induced apoptosis in Jurkat.ecoR cells; assay type: cell-based, human; details: 24 hours, any concentration
Protocol: Jurkat cells that express the receptor for ecotropic murine retroviruses (“Jurkat.ecoR”) were infected with retroviruses that express Toso and control vectors, pBabeMN-Toso, pBabeMN-lacZ and pBabeMN-Lyt-2-α′(α′ form of mouse CD8α chain) (Tagawa, et al. (1986)). Jurkat.ecOR cells were infected with pBabeMN-lacZ, pBabeMN-Lyt-2-α′, and pBabeMN-Toso. At 72 hours postinfection, infection frequency of pBabeMN-lacZ and pBabeMN-Lyt-2α′ were determined to be 45% and 58%, respectively. Jurkat cells were then cultured with 10 ng/ml anti-Fas mAb for 24 hours. After 12 or 24 hours, the cells were stained with 100 μg/ml ethidium bromide (SIGMA) and 100 μg/ml acridine orange (SIGMA). […]
Staurosporine is a bacterial alkaloid that is a broad spectrum inhibitor of protein kineses (Tamaoki and Nakano, Biotechnology, 8:732-735 (1990)) and induces programmed cell death in various cell lines and dissociated primary cells in culture (Ishizaki, et al, J. Cell Biol., 121:899-908 (1993); Jacobson, et al., Nature, 361:365-369 (1993); Raff, et al., Science. 262:695-700 (1993)). Ceramide generation is implicated in a signal transduction pathway that mediates programmed cell death induced by Fas and TNF-α (Cifone, et al., J. Exp. Med., 180:1547-1552 (1994); Obeid, et al., Science, 259:1769-1771 (1993)). pBabeMN-LacZ infected cells were counted by microscopic observation; infection frequency was determined to be 57%. […]

Jurkat.ecoR cells [4] = test: TNF-α-induced apoptosis in Jurkat.ecoR cells; assay type: cell-based, human; details: 1 μg/ml TNF-α with 0.1 μg/ml CHX, 12 hours, versus Lyt-2-α′
Protocol: The Fas receptor has homology to the TNF-α receptor, and these two receptors share analogous signaling systems as well as several intracellular mediators (Hsu, et al., Cell, 84:299-308 (1996)). The protective effect of Toso against TNF-α-induced apoptosis was tested by culturing Jurkat.ecOR cells expressing Lyt-2-α′ or Toso with 10 ng/ml of anti-Fas mAb or 1 μg/ml of TNF-α in the presence of 0.1 μg/ml of cyclohexamide (CHX) for 12 hours and apoptotic cells were counted. The infection frequency of pBabeMN-Lyt-2-α′ was determined to be 58%. […] Thus the TNF-α and Fas signaling pathways may converge at a common point that can be inhibited by Toso.

Jurkat.ecoR cells [5] = test: FADD-induced apoptosis in Jurkat.ecoR cells; assay type: cell-based, human; details: 24 hours postinfection with pBabeMN-FADD
Protocol: Fas-mediated apoptosis is activated through FADD. For FADD-induced apoptosis, mouse FADD (a gift from Dr. Angeles Estelles, Dept. Mol. Pharm., Stanford Univ.) was ligated into pBabeMN retroviral vector. Jurkat.ecoR cells expressing Lyt-2-α′ or Toso were infected with pBabeMN-LacZ or pBabeMN-FADD. After 24 hours infection with FADD, the cells were stained with ethidium bromide and acridine orange and counted the apoptotic cells. The effect of Toso on FADD-induced apoptosis was investigated by infecting Jurkat.ecoR cells expressing Lyt-2-α′ or Toso, with pBabeMN-LacZ or pBabeMN-FADD. The reinfection efficiency was approximately 40% using pBabeMN-LacZ. Jurkat.ecoR cells were infected with pBabeMN-Lyt-2-α′ and pBabeMN-Toso. Infection frequency of pBabeMN-Lyt-2-α′ was determined to be 72%. Jurkat.ecoR cells expressing Lyt-2-α′ or Toso were infected with pBabeMNLacZ or pBabeMN-FADD and apoptotic cells were counted at 24 hourrs postinfection. Infection frequency of pBabeMN-lacZ in Jurkat.ecoR cells expressing Lyt-2-α′ and Toso was determined to be 39% and 43%, respectively.

caspase-8 = test: Western blot of caspase-8 processing after Fas activation; assay type: cell-based, human; details: 50 ng/ml anti-Fas mAb, 6 hours, versus control Jurkat.ecoR cells
Protocol: The effect of overexpression of Toso on processing of caspase-8, which associates with FADD, was evaluated. […] To detect caspase-8, whole-cell lysates (2×10^6 cells per lane) were resolved by SDS-PAGE, transferred to an membrane and processed with goat anti-Mch5 p20 antibody (Santa Cruz Biotechnology, Inc., Santa Cruz, Calif. 95060, U.S.A.) as described above.

cFLIP = test: semi-quantitative RT-PCR of cFLIP mRNA expression; assay type: cell-based, human; details: Jurkat.ecoR cells
Text: Recently several groups have reported cFLIP is a caspase-8 inhibitor. We performed semi-quantitative RT-PCR to detect […] expression. To detect […] expression, a 1.1 kbp fragment (998-2061) of the cFLIP gene (U97074) was amplified with primers 5'-[NT] ID NO:32) and 5'-[NT] ID NO:33) for 35 cycles as described above. The sequence of the 1.1 kbp PCR product was verified using cycle sequencing ready reaction kit (Perkin Elmer, Calif. 94404, U.S.A.).

Bcl-2 and Bcl XL = test: Western blot of Bcl-2 and Bcl XL expression levels in Toso expressing cells; assay type: cell-based, human; details: data not shown
Protocol: The downstream effects of Toso on known inhibitors of apoptosis, were evaluated by western blot analysis of Bcl-2 and BCI XL expression levels in Toso expressing cells. Bcl-2 overexpression can block Fas-induced apoptosis as well as staurosporine-induced apoptosis (data not shown). No change in the levels of expression of Bcl-2 or BcI XL was observed by Western blot (data not shown).

Jurkat.ecoR cells [6] = test: PMA/Ionomycin-induced apoptosis in Jurkat.ecoR clones; assay type: cell-based, human; details: five pBabeMN-Toso-infected clones; 10 ng/ml PMA and 500 ng/ml Ionomycin, 24 hours
Text: However, following activation with PMA/lonomycin one third of Jurkat cells were clearly resistant to anti-Fas mAb induced apoptosis.
We further tested whether Toso expression could rescue activation-induced programmed cell death. We randomly picked five pBabeMN-Toso-infected Fas resistant Jurkat T cell clones and used these to assay the inhibitory effect of Toso on PMA/lonomycin-induced apoptosis.

human cell lines = test: anti-Fas mAb-induced apoptosis in several human cell lines overexpressing Toso; assay type: cell-based; details: data not shown
Text: Toso was expressed in several human cell lines including Jurkat cells, CemT4 cells (human T cell leukemia), SupT1 cells (human T cell leukemia, a kind gift from Dr. Cleary, M. L., Stanford Univ.), Oli-Ly8 cells (human B cell line; transformed with EBV), AMK cells (human B cell line; transformed with EBV), both a gift from Dr. Negrin, R. S., Stanford Univ., Reh cells (acute lymphocytic leukemia; non T; non B), HL-60 cells (promyelocytic leukemia) and HepG2 cells (hepatoma) using pBabeMN-Toso IRES neo to allow cotranslational selection with Geneticin (GIBCO BRL).

For DEVD-CHO, the ceramide-induced apoptosis [1] is listed as “does not inhibit”.

For “Lyt-2: full length Lyt-2 (mouse CD8α), control [reference compound]”, the “massive / rapid cell death in 70Z/3 cells” value (70Z/3 cells; after retroviral infection, in words) was “did not induce rapid cell death”.

B1: 4.8.HA: full-length Toso with C-terminal influenza hemagglutinin (HA) tag (protein)
chain: RILPEVKVEGELGGSVTIKCPLPEMHVRIYLCREMAGSGTCGTVVSTTNFIKAEYKGRVTLKQYPRKNLFLVEVTQLTESDSGVYACGAGMNTDRGKTQKVTLNVHSEYEPSWEEQPMPETPKWFHLPYLFQMPAYASSSKFVTRVTTPAQRGKVPPVHHSSPTTQITHRPRVSRASSVAGDKPRTFLPSTTASKISALEGLLKPQTPSYNHHTRLHRQRALDYGSQSGREGQGFHILIPTILGLFLLALLGLVVKRAVERRKALSRRARRLAVRMRALESSQRPRGSPRPRSQNNIYSACPRRARGADAAGTGEAPVPGPGAPLPPAPLQVSESPWLHAPSLKTSCEYVSLYHQPAAMMEDSDSDDYINVPA
modifications: left off: small tags and cut ends
notes: full-length Toso with C-terminal influenza hemagglutinin (HA) tag
In the case of B1, the “anti-Fas mAb-induced apoptosis” value (Jurkat.ecoR cells [2]) is reported as “markedly inhibited”, the “% Viable Cells” value (70Z/3 cells) is reported as 30 ± 4% and the “massive / rapid cell death in 70Z/3 cells” value (70Z/3 cells) is reported as “massive cell death was observed”.

B2: Toso: novel 390-amino acid Ig superfamily type 1 membrane protein (SEQ ID NO:2), expressed from retroviral vector pBabeMN (protein, listed as Homo sapiens)
chain: MDRWLWPLYFLPVSGALRILPEVKVEGELGGSVTIKCPLPEMHVRIYLCREMAGSGTCGTVVSTTNFIKAEYKGRVTLKQYPRKNLFLVEVTQLTESDSGVYACGAGMNTDRGKTQKVTLNVHSEYEPSWEEQPMPETPKWFHLPYLFQMPAYASSSKFVTRVTTPAQRGKVPPVHHSSPTTQITHRPRVSRASSVAGDKPRTFLPSTTASKISALEGLLKPQTPSYNHHTRLHRQRALDYGSQSGREGQGFHILIPTILGLFLLALLGLVVKRAVERRKALSRRARRLAVRMRALESSQRPRGSPRPRSQNNIYSACPRRARGADAAGTGEAPVPGPGAPLPPAPLQVSESPWLHAPSLKTSCEYVSLYHQPAAMMEDSDSDDYINVPA
With B2 the “Fas induced apoptosis in the presence of CHX” value (Jurkat.ecoR cells [2]; 10 ng/ml anti-Fas mAb with 0.1 μg/ml CHX, 12 hours) was “inhibited Fas induced apoptosis”, the “anti-Fas mAb-induced apoptosis” value (Jurkat.ecoR cells [2]) was “resistant to Fas-mediated apoptosis over a range of antiFas dilutions” and the “surviving Jurkat cells that expressed GFP” value (Jurkat.ecoR cells [2]; pBabeMN-Toso-IRES-GFP-infected cells, five days with 50 ng/ml anti-Fas mAb) was 99.7%. For the same molecule, the ceramide-induced apoptosis (Jurkat.ecoR cells [3]) was “not resistant”, the staurosporine-induced apoptosis (Jurkat.ecoR cells [3]) was “not resistant” and the TNF-α-induced apoptosis (Jurkat.ecoR cells [4]) was “protected against TNF-α-induced apoptosis”. The “FADD-induced apoptosis in cells constitutively expressing the construct” value (Jurkat.ecoR cells [5]) was “failed to induce apoptosis”, the “processed form (p20) of FLICE after Fas activation” value (caspase-8) was “greatly reduced” and the cFLIP expression (cFLIP) was “induced”. The “levels of expression of Bcl-2 or Bcl XL” value (Bcl-2 and Bcl XL) was “No change”, the PMA/Ionomycin-induced apoptosis (Jurkat.ecoR cells [6]) was “significant resistance” and the “apoptosis induced by anti-Fas mAb” value (human cell lines; all human T cell lines and B cell line Ocl-Ly8) was “inhibited”. The “protection against Fas-induced apoptosis” value (human cell lines; the other cell lines) was “no significant protection” and the “dead cells after infection” value (70Z/3 cells; 70Z/3 cells infected with pBabeMN-Toso) was “about 70%”.

B3: FADD: mouse FADD expressed from the pBabeMN retroviral vector, apoptosis inducer (protein, UniProt Q61160 1-205, looked up)
FAS-associated death domain …: MDPFLVLLHSLSGSLSGNDLMELKFLCRERVSKRKLERVQSGLDLFTVLLEQNDLERGHTGLLRELLASLRRHDLLQRLDDFEAGTATAAPPGEADLQVAFDIVCDNVGRDWKRLARELKVSEAKMDGIEEKYPRSLSERVRESLKVWKNAEKKNASVAGLVKALRTCRLNLVADLVEEAQESVSKSENMSPVLRDSTVSSSETP
In the case of B3, the “apoptosis induced in control Jurkat cells” value (Jurkat.ecoR cells [5]) is reported as 45%.
